In patent US20160089413:

System: all-D-retro-inverso JNK-inhibitor (poly-)peptide of SEQ ID NO: 11

Q: Which results are given for c-Jun NH2-terminal kinases (JNK)?
A: c-Jun phosphorylation in RPE/choroid, densitometry of phospho c-Jun relative to tubulin, 24 h after IV injection (20 µg/kg): 0.28±0.01 vs 0.77±0.26 in IV of vehicle; c-Jun phosphorylation in RPE/choroid, densitometry of phospho c-Jun relative to tubulin, 24 h after IVT injection (0.2 µg/injection): 0.35±0.08 vs 0.79±0.25 in IVT of vehicle; c-Jun phosphorylation in RPE/choroid, densitometry of phospho c-Jun relative to tubulin, fold decrease against vehicle: An approximately 3-fold decrease in c-Jun phosphorylation
